These are literature values, as cited in publication PMC8790524.

Series [1] deals with IL12Rβ1 ECD (Homo sapiens) (UniProt P42701). The series is described as follows: ITC. For orientation: ITC needs no label: the signal is the heat of the interaction.
The target of series [2] is IL23R ECD (Homo sapiens) (UniProt Q5VWK5). The series can be described thus: ITC.
Chain of IL23R ECD (Homo sapiens) (Q5VWK5 24-355): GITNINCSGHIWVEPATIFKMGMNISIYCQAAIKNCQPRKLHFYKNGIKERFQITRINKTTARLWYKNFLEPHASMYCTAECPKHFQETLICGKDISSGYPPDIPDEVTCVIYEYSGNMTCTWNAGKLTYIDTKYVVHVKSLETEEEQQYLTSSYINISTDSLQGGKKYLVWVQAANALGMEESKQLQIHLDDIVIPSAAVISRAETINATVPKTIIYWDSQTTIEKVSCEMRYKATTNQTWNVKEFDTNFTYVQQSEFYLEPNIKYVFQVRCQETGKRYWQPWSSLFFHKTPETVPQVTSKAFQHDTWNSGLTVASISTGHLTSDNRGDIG

Chain of IL-23 (Q9NPF7 20-189): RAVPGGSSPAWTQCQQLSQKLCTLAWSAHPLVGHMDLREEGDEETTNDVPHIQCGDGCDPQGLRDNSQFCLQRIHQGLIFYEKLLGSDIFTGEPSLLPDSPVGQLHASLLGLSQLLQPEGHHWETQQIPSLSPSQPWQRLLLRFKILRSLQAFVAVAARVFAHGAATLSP
Chain of IL-23 (P29460 23-328, further chain): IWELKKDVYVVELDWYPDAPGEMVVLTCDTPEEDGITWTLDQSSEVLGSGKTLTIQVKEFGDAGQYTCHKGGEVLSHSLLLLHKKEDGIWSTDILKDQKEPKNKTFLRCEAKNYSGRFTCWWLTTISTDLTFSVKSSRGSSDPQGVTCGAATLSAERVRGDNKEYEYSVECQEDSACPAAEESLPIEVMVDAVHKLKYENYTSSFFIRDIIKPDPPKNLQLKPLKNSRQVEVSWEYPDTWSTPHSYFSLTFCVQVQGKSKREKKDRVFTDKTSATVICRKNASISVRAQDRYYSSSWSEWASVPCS

IL-23 (from UniProt Q9NPF7): the Kd in series [1] was 2 µM; in series [2], 0.044 µM.

The Kd is the equilibrium constant for the complex coming apart.
